Reference: patent US20190008955A1 (SORRENTO THERAPEUTICS, published 2019)
Residue numbers refer to the chain shown, from its start. One block for each binder: values may come before it.

Experiments:
human CXCR3 [1] = biological target: T1, human CXCR3 (human, UniProt P49682 1-368); assay: flow cytometry, antibody titration on CHO-CXCR3 cells
T1 construct: whole, on cells; also called hu-CXCR3; C-X-C chemokine receptor 3
T1 sequence (looked up): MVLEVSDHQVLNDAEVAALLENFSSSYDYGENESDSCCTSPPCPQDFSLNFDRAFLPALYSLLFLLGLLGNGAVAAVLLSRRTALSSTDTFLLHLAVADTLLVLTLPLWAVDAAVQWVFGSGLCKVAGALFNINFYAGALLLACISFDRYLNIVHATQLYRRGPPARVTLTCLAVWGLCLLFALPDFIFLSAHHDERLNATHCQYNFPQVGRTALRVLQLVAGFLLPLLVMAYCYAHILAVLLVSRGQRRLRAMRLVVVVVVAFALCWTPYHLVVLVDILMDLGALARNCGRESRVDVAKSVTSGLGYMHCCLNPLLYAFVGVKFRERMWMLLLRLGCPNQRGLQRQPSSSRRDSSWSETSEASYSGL
Protocol: In this example, CHO-CXCR3 cells were lifted from culture flasks using non-enzymatic Cell Dissociation Buffer-PBS based (Life Technologies #13151-014). Cells were resuspended in FACS Buffer (2% Fetal Bovine Serum in PBS) at 1×10⁶ cells/ml and 50 μl (0.5×10⁵ cells) were aliquoted into the wells of a 96-well plate. Plated cells were spun down and the supernatant discarded. Cells were resuspended in 30 μl FACS Buffer containing serially diluted concentrations of antibody in triplicate. Plates were incubated for 1 hr at 4° C. and then washed twice with FACS Buffer. Cells were resuspended in 50 μl goat anti-human IgG (γ-chain specific)-PE conjugated secondary antibody (Southern Biotech #2040-09) diluted 1:500 in FACS Buffer. Cells were further incubated for 30 min at 4° C. and then washed 1× with FACS Buffer. The cells were resuspended in a final volume of 30 μl FACS Buffer and analyzed using the Intellicyt Flow Cytometer. Median fluorescence in the FL-2H channel was determined using FlowJo software and EC₅₀ value was determined by plotting the data in GraphPad Prism and analyzing using a variable slope non-linear regression.

murine CXCR3 = biological target: T2, murine CXCR3 (murine, UniProt O88410 1-367); assay: flow cytometry, antibody titration on murine B16-F10 cells
T2 construct: whole, on cells; target is the endogenous receptor on B16-F10 cells; also called mur CXCR3
T2 sequence (looked up): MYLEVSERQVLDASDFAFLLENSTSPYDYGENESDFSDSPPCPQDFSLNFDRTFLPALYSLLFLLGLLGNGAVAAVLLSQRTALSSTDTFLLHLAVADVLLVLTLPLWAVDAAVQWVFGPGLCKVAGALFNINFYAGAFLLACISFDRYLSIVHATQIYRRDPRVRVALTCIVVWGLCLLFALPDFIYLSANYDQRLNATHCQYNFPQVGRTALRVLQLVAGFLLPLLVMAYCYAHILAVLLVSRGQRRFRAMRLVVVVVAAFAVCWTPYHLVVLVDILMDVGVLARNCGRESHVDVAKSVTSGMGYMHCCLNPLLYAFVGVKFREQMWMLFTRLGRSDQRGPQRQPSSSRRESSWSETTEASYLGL
Protocol: In this example, murine B16-F10 cells (ATCC, #CRL-6475) were lifted from culture flasks using non-enzymatic Cell Dissociation Buffer-PBS based (Life Technologies #13151-014). Cells were harvested, washed and resuspended in FACS Buffer (2% Fetal Bovine Serum in PBS) at 1×10⁶ cells/ml and 50 μl (0.5×10⁵ cells) were aliquoted into the wells of a 96-well plate. Plated cells were spun down and the supernatant discarded. Cells were resuspended in 30 μl FACS Buffer serially diluted concentrations of antibody in triplicate. Plates were incubated for 1 hr at 4° C. and then washed 2× with FACS Buffer. Cells were resuspended in 50 μl goat anti-human IgG (γ-chain specific)-PE conjugated secondary antibody (Southern Biotech #2040-09) diluted 1:500 in FACS Buffer. Cells were further incubated for 30 min at 4° C. and then washed 1× with FACS Buffer. The cells were resuspended in a final volume of 30 μl FACS Buffer and analyzed using the Intellicyt Flow Cytometer. Median fluorescence in the FL-2H channel was determined using FlowJo software and the EC₅₀ value was determined by plotting the data in GraphPad Prism and analyzing using a variable slope non-linear regression.

human CXCR3 [2] = biological target: T1, human CXCR3; assay: cell-based or functional assay
human CXCR3 [3] = biological target: T1, human CXCR3; assay: cell-based or functional assay; remark: listed apart in the source

B1: 2A3 (antibody, V domains shown)
VH: QVQLVQSGAEVKKPGSSVKVACKASGGTFSHSAISWVRQAPGQGLEWIGRTIPTLEMASYAQKFQGRVTISADKSTRTGYMELRDLRSEDTAVYYCSTQTPSYTDHWGQGTLVTVSS
VL: DIVMTQTPLSLPVTLGQPASISCRSSQSLVHSDGNTYLNWFQQRPGQSPRRLIYKVSNRDSGVPDRFSGSGSGTDFTLKISRVEAEDVGVYYCMQGTHWPLTFGGGTKVEIK
notes: Fully human IgG class
- EC50 (human CXCR3 [1]): 11 nM

B3: F7 (antibody, V domains shown)
VH: B1 VH
VL: B1 VL with S26N, N39Y, S81N, L101N, G105Q, V109L
notes: Fully human IgG class; 31
- EC50 (human CXCR3 [1]): 5 nM

B4: 32B12 (antibody, V domains shown)
VH: EVQLVQSGGGLVKSGRSLRLSCTVSGFTFGNSAMSWFRQAPGKGLEWVSSISSSSSYIYYADSVKGRFTISRDNAKNSLYLQMNSLRAEDTAVYYCARDLSGRGYSYLNYWGQGTLVTVSS
VL: SYELTQPPSVSAAPGQKVTISCSGSSSNIGNSYVSWFQQFPGTAPKLVIYENNKRPSGIPDRFSGSKSGTSATLGITGLQTGDEADYYCGTWDSSLSGRVFGGGTKLTVL
notes: Described as a fully human antibody of an IgG class and detected with anti-human IgG (gamma-chain specific); also called anti-CXCR3 antibody 32B12; clone 32B12
- EC50 (murine CXCR3): 25 nM
- IC50 [nM] in a calcium flux assay using CHO-CXCR3 cells, ligand CXCL9 (200 nM) (human CXCR3 [2]): 37 nM
- IC50 [nM] in a calcium flux assay using CHO-CXCR3 cells, ligand CXCL10 (164 nM) (human CXCR3 [2]): 7 nM
- IC50 [nM] in a calcium flux assay using CHO-CXCR3 cells, ligand CXCL11 (60 nM) (human CXCR3 [2]): 16 nM
- IC50 [nM] in a chemotaxis assay using activated T cells, ligand CXCL9 (30 nM) (human CXCR3 [3]): 0.6 nM
- IC50 [nM] in a chemotaxis assay using activated T cells, ligand CXCL10 (12.5 nM) (human CXCR3 [3]): 0.2 nM
- IC50 [nM] in a chemotaxis assay using activated T cells, ligand CXCL11 (0.3 nM) (human CXCR3 [3]): 0.3 nM
- EC50 (human CXCR3 [1]): 1 nM

B5: 3A11 (antibody, V domains shown)
VH: QVQLVQSGGGLVKPGGSLRLSCAASGFTFTSSGMNWVRQAPGKGLEWVAYIFPNGKTLYPESVKGRFIITRDNAEKSLFLEMNNLRAEDMGVYYCAIDLNWGSGYWGQGTLVTVSS
VL: SYVLTQPPSVSKGLRQTATLTCTGNINNVGNVGATWLQQHQGHPPKLLSDRNNNRPSGISERFSASRSGNAASLTITGLQPEDEADYYCSAWDTSLGAWVFGGGTKLTVL
notes: Fully human IgG class
- EC50 (human CXCR3 [1]): 1.2 nM

B6: 32D12 (antibody, V domains shown)
VH: EVQLLESGGGLVQPGGSQRLSCAASGFTFSSYPMTWVRQAPGKGLEWVSAISDGGSGTYYADSVKGRFTISRDNSKNTLYLQMNSLRAEDTAIYYCARYKMGGSYRGLDDWGQGTLVTVSS
VL: LPVLTQPASVSGSPGQPITISCTGTSGNIGSYNYVSWYQQHPGKAPRLLIYDVSLRPSGISSHFSGSKSGNTASLTISGLQAEDEAEYFCLSWTSDKTYVFGSGTKLTVL
notes: Fully human IgG class
- IC50 [nM] in a calcium flux assay using CHO-CXCR3 cells, ligand CXCL11 (60 nM) (human CXCR3 [2]): 19 nM
- IC50 [nM] in a chemotaxis assay using activated T cells, ligand CXCL9 (30 nM) (human CXCR3 [3]): 2.5 nM
- IC50 [nM] in a chemotaxis assay using activated T cells, ligand CXCL10 (12.5 nM) (human CXCR3 [3]): 0.03 nM
- IC50 [nM] in a chemotaxis assay using activated T cells, ligand CXCL11 (0.3 nM) (human CXCR3 [3]): 3.4 nM
- EC50 (human CXCR3 [1]): 4 nM

The next binders have a lower EC50 (human CXCR3 [1]) than those just listed; values first:

- EC50 (human CXCR3 [1]): 0.6 nM
B7: 3C11 (antibody, V domains shown)
VH: EVQLVESGGGLVQPGGSLRLSCSASGFTFSSYAMHWVRQAPGKGLEYVSAISSNGGSTYYADSVKGRFTISRDNSKNTLYLQMSSLRAEDTAVYYCVKSIAAAGTQYYYYYMDVWGKGTTVTVSS
VL: DIQLTQSPSSLSASVGDRVTITCRASQGIGTYLAWFQQKPGKVPKPLIYAASTLQSGVPSRFSGSGSGADFTLTISSLQPEDVATYYCQKYNSVPQTFGQGTKVEIK
notes: Fully human IgG class

- EC50 (human CXCR3 [1]): 0.5 nM
B2: 3A3 (antibody, V domains shown)
VH: QVQLVQSGAEVKKPGSSVKVSCKASGGTFNRYAFSWVRQAPGQGPELMGRIMPMFDIASYAQKFQGRLTITADKSTSTAYMELSSLRSDDTAVYYCTQVSGDSDYWGPGTLVTVSS
VL: B1 VL with S32N, Q42H, S61F, K79R, T97S
notes: Fully human IgG class
